The record followed here is US20110046075A1.

pKd: −log10 of the molar value.

The target of experiment [1] is Recombinant C3d (human C3 residues 974-1265, C1010A, with N-terminal G-S-R-S-T) (human) (UniProt P01024). Description: ITC at 25 C, Efb-C titrated into recombinant C3d.
The target is the same in experiment [2]. Description: ITC (Example 3, FIG. 17), Efb-C titrated into recombinant C3d.
The target is the same in experiment [3]. Description: ITC at 25 C, Efb-C titrated into recombinant C3d, single-site model.
For experiment [4] the target is unchanged. Description: isothermal titration calorimetry, Efb-C titrated into recombinant C3d. (ITC needs no label: the signal is the heat of the interaction.)
The target is the same in experiment [5]. Description: ITC, model of two non-equivalent sites.
For experiment [6] the target is unchanged. Description: ITC, Ehp titrated into recombinant C3d, model of two non-equivalent sites, first site.
The target is the same in experiment [7]. Briefly: isothermal titration calorimetry, Ehp titrated into recombinant C3d; first site.
For experiment [8] the target is unchanged. Briefly: ITC, Ehp titrated into recombinant C3d, model of two non-equivalent sites, second site.
For experiment [9] the target is unchanged. Description: isothermal titration calorimetry, Ehp titrated into recombinant C3d; second site.
The target is the same in experiment [10]. Briefly: isothermal titration calorimetry, Ehp titrated into recombinant C3d; first site of a model with two non-equivalent sites.
Experiment [11] has the same target. Briefly: isothermal titration calorimetry, Ehp titrated into recombinant C3d; second site of a model with two non-equivalent sites.
Experiment [12] has the same target. Briefly: ITC at 25 C, Efb titrated into recombinant C3d.
For experiment [13] the target is unchanged. Briefly: ITC (Example 3, FIG. 17), Efb titrated into recombinant C3d.
Experiment [14] shares this target. Briefly: ITC at 25 C, Efb titrated into recombinant C3d, single-site model.
Experiment [15] has the same target. Description: isothermal titration calorimetry, Efb titrated into recombinant C3d.

Sequence of Recombinant C3d (human C3 residues 974-1265, C1010A, with N-terminal G-S-R-S-T) (human) (P01024 other isoform, or with tags, fused parts or gaps C1010A C1010A limits assumed, form in doubt): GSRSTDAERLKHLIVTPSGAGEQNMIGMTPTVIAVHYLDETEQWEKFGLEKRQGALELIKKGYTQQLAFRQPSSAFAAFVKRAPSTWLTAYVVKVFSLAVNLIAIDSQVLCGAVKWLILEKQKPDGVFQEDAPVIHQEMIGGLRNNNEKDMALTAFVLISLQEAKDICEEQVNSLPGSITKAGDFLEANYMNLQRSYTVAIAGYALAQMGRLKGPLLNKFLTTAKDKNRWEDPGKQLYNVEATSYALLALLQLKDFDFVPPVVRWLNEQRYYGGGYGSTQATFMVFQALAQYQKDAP

Consider “Efb-C, C-terminal C3-binding domain of Efb from S. aureus strain Mu50 (from UniProt P0C6P2 94-165)”, for which the enthalpy of binding (ΔH) in experiment [1] is -8.5 kcal/mol. For the same substance, the negative logarithm of the Kd (pKd) in experiment [2] and in [3] was 8.70 throughout. Moreover, in experiment [4], the N was 1.
Take “SAV1155/Ehp (Efb Homologous Protein), recombinant mature form, S. aureus strain Mu50”: in experiment [5], the change in ΔG between the first and second sites is 3 kcal/mol. The unfavorable change in enthalpy release between the first and second sites in experiment [5] is 27 kcal/mol. Besides, the negative-log Kd (pKd) in experiment [6] is 9.70; in experiment [8], 7.48; in experiment [10] it was 9.70; in experiment [11], 7.48. In addition, the N in experiment [7] and in experiment [9] was 0.5 each time. Further, the ΔH in experiment [7] is -21.1 kcal/mol; in experiment [9] it was 5.7 kcal/mol.
Consider “Extracellular fibrinogen-binding protein (Efb), recombinant full-length, S. aureus strain Mu50 (from UniProt P0C6P2 29-165)”, for which, in experiment [12], the enthalpy of binding (ΔH) was -9 kcal/mol. For the same substance, the negative logarithm of the Kd (pKd) in [13] was 8.70; in experiment [14], 8.70; in [15], 8.40. In addition, the N in experiment [15] was 1. Also, the ΔH in [15] was -9.1 kcal/mol.

The term pKd denotes the Kd on a negative log10 scale, so that one unit is a factor of ten.
